The results in this text go back to patent US20050282743A1, “Molecular interactions in cells” (Arbor Vita Corporation, priority 2001, published 2005).

Holding throughout (test): G' assay (10 uM PL peptide), results of TABLE 7 and TABLE 12
Common to all, as to format: binding

The target of test [1] is T1, PDZ protein (GST-PDZ fusion) (Homo sapiens, UniProt Q02410).
T1 construct: made in house; host or cells: E. coli (DH5alpha, BL21 or JM109)
T1 sequence (Q02410 1-837): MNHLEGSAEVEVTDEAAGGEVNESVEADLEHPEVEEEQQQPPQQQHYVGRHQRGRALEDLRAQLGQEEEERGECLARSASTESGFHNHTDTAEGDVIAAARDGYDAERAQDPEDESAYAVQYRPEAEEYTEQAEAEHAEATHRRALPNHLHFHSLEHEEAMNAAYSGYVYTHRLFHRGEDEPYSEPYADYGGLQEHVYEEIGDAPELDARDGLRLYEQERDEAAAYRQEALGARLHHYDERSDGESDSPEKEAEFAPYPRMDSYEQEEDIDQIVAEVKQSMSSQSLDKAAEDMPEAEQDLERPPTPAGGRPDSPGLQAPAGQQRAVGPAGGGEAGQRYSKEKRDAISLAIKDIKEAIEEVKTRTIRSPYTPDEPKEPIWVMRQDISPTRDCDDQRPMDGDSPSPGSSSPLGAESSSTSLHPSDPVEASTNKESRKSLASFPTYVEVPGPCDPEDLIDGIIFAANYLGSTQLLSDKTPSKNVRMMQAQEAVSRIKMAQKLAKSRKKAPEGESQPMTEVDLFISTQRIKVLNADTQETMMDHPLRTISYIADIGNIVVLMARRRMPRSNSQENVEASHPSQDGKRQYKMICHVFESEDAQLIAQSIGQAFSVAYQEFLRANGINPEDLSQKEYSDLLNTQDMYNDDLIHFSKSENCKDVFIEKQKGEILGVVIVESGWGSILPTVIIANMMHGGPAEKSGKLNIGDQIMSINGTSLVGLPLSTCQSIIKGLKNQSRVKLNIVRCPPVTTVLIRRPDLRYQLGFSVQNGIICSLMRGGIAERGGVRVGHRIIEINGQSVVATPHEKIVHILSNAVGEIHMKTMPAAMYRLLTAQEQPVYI
The procedure, abridged: (§1)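 Same steps as the G-zero format, apart from a peptide concentration of 10 uM in place of 20 uM in step 2. Amino-terminally biotinylated PL peptides bind GST-PDZ fusions, and retained peptide is quantified by 450 nm absorbance.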

The target in test [2] is T2, PDZ protein (GST-PDZ fusion) (Homo sapiens, UniProt Q96JH8).
T2 construct: made in house; host or cells: E. coli (DH5alpha, BL21 or JM109)
T2 sequence (Q96JH8 1-1075): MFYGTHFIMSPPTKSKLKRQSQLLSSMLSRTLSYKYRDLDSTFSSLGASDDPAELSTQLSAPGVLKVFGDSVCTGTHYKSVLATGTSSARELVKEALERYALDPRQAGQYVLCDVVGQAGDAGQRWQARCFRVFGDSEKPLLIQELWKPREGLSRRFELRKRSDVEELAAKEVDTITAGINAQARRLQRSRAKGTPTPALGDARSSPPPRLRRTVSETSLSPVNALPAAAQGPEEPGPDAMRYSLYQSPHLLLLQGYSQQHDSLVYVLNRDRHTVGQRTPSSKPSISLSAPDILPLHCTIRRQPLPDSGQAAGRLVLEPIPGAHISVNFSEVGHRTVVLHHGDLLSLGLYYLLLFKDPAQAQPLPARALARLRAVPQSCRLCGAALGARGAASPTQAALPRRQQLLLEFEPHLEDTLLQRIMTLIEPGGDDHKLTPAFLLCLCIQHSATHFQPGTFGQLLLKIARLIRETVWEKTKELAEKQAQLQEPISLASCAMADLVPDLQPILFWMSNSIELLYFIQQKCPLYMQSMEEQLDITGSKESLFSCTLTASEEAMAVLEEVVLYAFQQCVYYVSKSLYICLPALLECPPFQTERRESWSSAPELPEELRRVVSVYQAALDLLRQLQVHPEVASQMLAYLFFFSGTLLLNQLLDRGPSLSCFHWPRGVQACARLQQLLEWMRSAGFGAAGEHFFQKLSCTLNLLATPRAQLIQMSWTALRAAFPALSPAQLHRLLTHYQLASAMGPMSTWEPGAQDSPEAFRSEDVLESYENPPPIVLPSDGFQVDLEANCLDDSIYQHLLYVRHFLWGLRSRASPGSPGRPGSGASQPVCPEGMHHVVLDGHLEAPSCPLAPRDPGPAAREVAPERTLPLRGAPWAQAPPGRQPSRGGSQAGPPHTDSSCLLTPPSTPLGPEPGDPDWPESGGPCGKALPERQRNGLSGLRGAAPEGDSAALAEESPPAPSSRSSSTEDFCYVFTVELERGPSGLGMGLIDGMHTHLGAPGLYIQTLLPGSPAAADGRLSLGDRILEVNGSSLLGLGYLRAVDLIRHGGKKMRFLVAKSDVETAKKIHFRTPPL
The following applies: PDZ FLJ 10324, PDZ Domain 1. The essentials:
as §1

Test [3] deals with T3, PDZ protein (GST-PDZ fusion) (Homo sapiens, UniProt O75970).
T3 construct: made in house; host or cells: E. coli (DH5alpha, BL21 or JM109)
The procedure, abridged:
as §1

Ends that are not written are not given here. Peptide text beside a SMILES is read from it. * marks the point of attachment. Biotin = O=C1N[C@H]2[C@H](CS[C@H]2CCCCC(=O)*)N1

T3 sequence (O75970 whole entry, the tested form may be a part): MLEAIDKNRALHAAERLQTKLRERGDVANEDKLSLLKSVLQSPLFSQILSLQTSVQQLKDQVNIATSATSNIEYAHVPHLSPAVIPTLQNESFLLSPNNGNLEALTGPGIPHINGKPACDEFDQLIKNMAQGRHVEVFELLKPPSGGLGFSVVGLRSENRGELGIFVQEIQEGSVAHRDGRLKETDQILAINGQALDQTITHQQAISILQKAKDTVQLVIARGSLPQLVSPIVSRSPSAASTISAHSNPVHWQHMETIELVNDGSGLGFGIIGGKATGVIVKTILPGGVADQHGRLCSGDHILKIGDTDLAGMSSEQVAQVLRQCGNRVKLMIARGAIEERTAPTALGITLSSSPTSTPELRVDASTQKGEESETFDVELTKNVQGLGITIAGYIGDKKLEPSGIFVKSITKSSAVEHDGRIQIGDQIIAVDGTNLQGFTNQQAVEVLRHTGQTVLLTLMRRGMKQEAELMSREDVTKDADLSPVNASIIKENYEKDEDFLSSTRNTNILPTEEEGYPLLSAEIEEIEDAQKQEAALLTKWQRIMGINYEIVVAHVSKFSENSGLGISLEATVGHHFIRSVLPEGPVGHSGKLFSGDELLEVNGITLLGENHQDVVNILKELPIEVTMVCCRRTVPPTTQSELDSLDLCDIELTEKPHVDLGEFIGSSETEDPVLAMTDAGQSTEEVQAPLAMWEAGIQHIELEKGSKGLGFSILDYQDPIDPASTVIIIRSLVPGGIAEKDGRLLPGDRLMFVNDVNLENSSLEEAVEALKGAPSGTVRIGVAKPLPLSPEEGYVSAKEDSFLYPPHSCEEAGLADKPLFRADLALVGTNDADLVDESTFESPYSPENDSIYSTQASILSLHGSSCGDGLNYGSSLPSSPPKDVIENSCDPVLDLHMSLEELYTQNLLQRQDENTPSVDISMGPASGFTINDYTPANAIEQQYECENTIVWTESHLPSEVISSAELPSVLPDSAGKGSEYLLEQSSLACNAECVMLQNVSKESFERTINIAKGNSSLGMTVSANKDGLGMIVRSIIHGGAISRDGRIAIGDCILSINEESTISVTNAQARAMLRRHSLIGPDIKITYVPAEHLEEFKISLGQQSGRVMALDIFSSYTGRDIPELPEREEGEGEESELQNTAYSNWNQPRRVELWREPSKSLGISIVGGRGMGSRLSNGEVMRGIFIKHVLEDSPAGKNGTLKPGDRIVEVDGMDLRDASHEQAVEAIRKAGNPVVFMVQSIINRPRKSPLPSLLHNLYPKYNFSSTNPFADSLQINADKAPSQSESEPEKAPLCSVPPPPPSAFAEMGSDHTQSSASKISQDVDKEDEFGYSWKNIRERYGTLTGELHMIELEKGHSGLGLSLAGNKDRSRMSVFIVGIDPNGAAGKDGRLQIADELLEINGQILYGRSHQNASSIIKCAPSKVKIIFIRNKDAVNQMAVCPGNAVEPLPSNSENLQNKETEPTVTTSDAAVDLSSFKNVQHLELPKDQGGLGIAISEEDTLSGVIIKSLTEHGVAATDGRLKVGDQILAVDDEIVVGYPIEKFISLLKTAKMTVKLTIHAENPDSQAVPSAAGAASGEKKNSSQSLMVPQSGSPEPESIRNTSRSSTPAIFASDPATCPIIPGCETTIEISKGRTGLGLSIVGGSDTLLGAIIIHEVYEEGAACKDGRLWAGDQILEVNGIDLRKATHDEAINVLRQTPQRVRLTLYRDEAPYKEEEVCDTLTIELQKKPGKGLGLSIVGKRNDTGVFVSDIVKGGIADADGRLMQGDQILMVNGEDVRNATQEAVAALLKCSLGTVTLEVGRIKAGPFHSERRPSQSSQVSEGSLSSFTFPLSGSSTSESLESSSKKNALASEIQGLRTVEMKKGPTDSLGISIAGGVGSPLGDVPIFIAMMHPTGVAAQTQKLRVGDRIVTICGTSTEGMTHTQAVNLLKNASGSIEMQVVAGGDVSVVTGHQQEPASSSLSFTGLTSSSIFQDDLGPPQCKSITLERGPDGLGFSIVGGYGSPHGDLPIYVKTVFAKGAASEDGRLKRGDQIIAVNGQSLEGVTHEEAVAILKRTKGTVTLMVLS

Take “PPATPSPRLALPAHHNATRL (Biotin-PPATPSPRLALPAHHNATRL) [Na+/Pi cotransporter 2]”: the Classification is listed as 1 (A450 nm 0-1) in test [1] (PDZ Mint 1, PDZ Domain 2); 1 (A450 nm 0-1) in test [2]; 1 (A450 nm 0-1) in test [3] (PDZ MUPP-1, PDZ Domain 10); 1 (A450 nm 0-1) in test [3] (PDZ MUPP-1, PDZ Domain 13).
Turning to “ALVLIAFCIIRRRPSAYQAL (Biotin-ALVLIAFCIIRRRPSAYQAL) [CD68]”, the Classification is 1 (A450 nm 0-1) in test [1] (PDZ Mint 1, PDZ Domain 1, 2); 2 (A450 nm 1-2) in test [1] (PDZ Mint 1, PDZ Domain 2); 1 (A450 nm 0-1) in test [2].
Take `CC(C)C[C@H](NC(=O)[C@H](CC(C)C)NC(=O)[C@@H](NC(=O)[C@H](CC(=O)O)NC(=O)CCCC[C@@H]1SC[C@@H]2NC(=O)N[C@@H]21)[C@@H](C)O)C(=O)N[C@@H](CC(C)C)C(=O)N[C@H](C(=O)N[C@@H](CCC(=O)O)C(=O)N[C@@H](CC(N)=O)C(=O)N[C@@H](CCC(=O)O)C(=O)NCC(=O)N[C@@H](CC(=O)O)C(=O)N[C@@H](CCCCN)C(=O)N[C@H](C(=O)N[C@@H](CCC(=O)O)C(=O)N[C@@H](CCC(=O)O)C(=O)N[C@@H](CCC(N)=O)C(=O)N[C@H](C(=O)N[C@@H](CO)C(=O)N[C@@H](Cc1ccc(O)cc1)C(=O)N[C@H](C(=O)O)C(C)C)C(C)C)[C@@H](C)O)[C@@H](C)O` [5H2B_HUMAN] (Biotin-DTLLLTENEGDKTEEQVSYV-OH; C-terminus assumed): the Classification was 1 (A450 nm 0-1) in test [1] (PDZ Mint 1, PDZ Domain 1, 2); 1 (A450 nm 0-1) in test [1] (PDZ Mint 1, PDZ Domain 2); 2 (A450 nm 1-2) in test [2].
Turning to `CC[C@H](C)[C@H](NC(=O)[C@H](CCC(=O)O)NC(=O)[C@H](CC(N)=O)NC(=O)[C@H](CCCNC(=N)N)NC(=O)[C@H](Cc1ccccc1)NC(=O)[C@H](CC(N)=O)NC(=O)[C@H](CO)NC(=O)[C@H](CC(N)=O)NC(=O)[C@H](CCC(=O)O)NC(=O)[C@H](CO)NC(=O)[C@H](CC(=O)O)NC(=O)[C@H](CO)NC(=O)[C@@H](NC(=O)[C@@H](NC(=O)[C@H](CC(=O)O)NC(=O)[C@H](CCCCN)NC(=O)CCCC[C@@H]1SC[C@@H]2NC(=O)N[C@@H]21)[C@@H](C)CC)[C@@H](C)O)C(=O)N[C@@H](CCC(N)=O)C(=O)N[C@@H](CO)C(=O)N[C@@H](CC(C)C)C(=O)N[C@H](C(=O)O)C(C)C` [CD95] (Biotin-KDITSDSENSNFRNEIQSLV-OH; C-terminus assumed), the Classification in test [2] is reported as 1 (A450 nm 0-1).
On the same count and under the same terms, then “SLKPGTVLPPPPYRHRNTVV (Biotin-SLKPGTVLPPPPYRHRNTVV) [ErbB-4 receptor]”, with 1 (A450 nm 0-1).
“PYSELNYETSHYPASPDSWV (Biotin-PYSELNYETSHYPASPDSWV) [catenin - delta 2]”: the Classification in test [1] (PDZ Mint 1, PDZ Domain 1, 2) is 5 (A450 nm of 4 more than 2× repeated); in test [1] (PDZ Mint 1, PDZ Domain 2) it was 3 (A450 nm 2-3); in test [2], 3 (A450 nm 2-3).
With “GPVPGEPAKPKTSAHHATFV (Biotin-GPVPGEPAKPKTSAHHATFV)”, the Classification in test [2] is reported as 1 (A450 nm 0-1); in test [3] (PDZ MUPP-1, PDZ Domain 11), 1 (A450 nm 0-1).
`CC(C)C[C@H](NC(=O)[C@H](C)NC(=O)[C@@H](NC(=O)[C@@H](NC(=O)[C@H](Cc1c[nH]cn1)NC(=O)[C@H](CC(C)C)NC(=O)CNC(=O)[C@H](CCC(N)=O)NC(=O)CNC(=O)CNC(=O)[C@H](C)NC(=O)[C@H](C)NC(=O)[C@H](CCCNC(=N)N)NC(=O)[C@H](C)NC(=O)[C@H](CO)NC(=O)[C@H](CC(=O)O)NC(=O)[C@H](CC(=O)O)NC(=O)[C@H](Cc1c[nH]c2ccccc12)NC(=O)[C@H](C)NC(=O)CCCC[C@@H]1SC[C@@H]2NC(=O)N[C@@H]21)C(C)C)[C@@H](C)O)C(=O)O` [LPAP] (Biotin-AWDDSARAAGGQGLHVTAL-OH; C-terminus assumed): the Classification is on record as 1 (A450 nm 0-1) in test [1] (PDZ Mint 1, PDZ Domain 2) and 1 (A450 nm 0-1) in test [2].
In the case of “LASKSAEEGKQIPDSLSTDL (Biotin-LASKSAEEGKQIPDSLSTDL) [Dock2]”, the Classification in test [2] was 1 (A450 nm 0-1).
Same read-out and setting: then `CC(C)C[C@H](NC(=O)[C@H](Cc1c[nH]c2ccccc12)NC(=O)[C@H](Cc1c[nH]cn1)NC(=O)[C@H](CCCNC(=N)N)NC(=O)[C@H](CC(C)C)NC(=O)[C@@H](NC(=O)[C@H](Cc1ccccc1)NC(=O)[C@H](CCC(N)=O)NC(=O)[C@H](CCCNC(=N)N)NC(=O)[C@@H](NC(=O)[C@H](CCC(=O)O)NC(=O)CNC(=O)[C@H](CCCNC(=N)N)NC(=O)[C@H](CC(=O)O)NC(=O)[C@@H](NC(=O)[C@H](CC(C)C)NC(=O)[C@H](CCC(=O)O)NC(=O)[C@H](CCCNC(=N)N)NC(=O)CCCC[C@@H]1SC[C@@H]2NC(=O)N[C@@H]21)C(C)C)C(C)C)[C@@H](C)O)C(=O)N[C@@H](CCCCN)C(=O)N[C@H](C(=O)O)C(C)C` [Dopamine transporter (Na+-dependent)] (Biotin-RELVDRGEVRQFTLRHWLKV-OH; C-terminus assumed), with 5 (A450 nm of 4 more than 2× repeated).
For `CC[C@H](C)[C@H](NC(=O)[C@H](CCC(N)=O)NC(=O)CCCC[C@@H]1SC[C@@H]2NC(=O)N[C@@H]21)C(=O)N[C@@H](CO)C(=O)N1CCC[C@H]1C(=O)NCC(=O)NCC(=O)N[C@@H](CC(C)C)C(=O)N[C@@H](CCC(=O)O)C(=O)N1CCC[C@H]1C(=O)N1CCC[C@H]1C(=O)N[C@@H](CO)C(=O)N[C@@H](CCC(=O)O)C(=O)N[C@@H](CCCCN)C(=O)N[C@@H](Cc1c[nH]cn1)C(=O)N[C@@H](Cc1ccccc1)C(=O)N[C@@H](CCCNC(=N)N)C(=O)N[C@@H](CCC(=O)O)C(=O)N[C@H](C(=O)N[C@@H](CCC(=O)O)C(=O)N[C@H](C(=O)O)C(C)C)[C@@H](C)O` [Tax], the Classification in test [2] is on record as 1 (A450 nm 0-1); in test [3] (PDZ MUPP-1, PDZ Domain 13), 5 (A450 nm of 4 more than 2× repeated).
Consider `CC(C)C[C@H](NC(=O)CNC(=O)[C@@H](NC(=O)[C@H](CO)NC(=O)[C@H](CC(N)=O)NC(=O)[C@H](Cc1ccccc1)NC(=O)CNC(=O)[C@H](C)NC(=O)[C@H](C)NC(=O)[C@H](Cc1ccccc1)NC(=O)[C@@H](NC(=O)CCCC[C@@H]1SC[C@@H]2NC(=O)N[C@@H]21)[C@@H](C)O)[C@@H](C)O)C(=O)N1CCC[C@H]1C(=O)N[C@@H](Cc1c[nH]cn1)C(=O)N[C@@H](CO)C(=O)N[C@H](C(=O)N[C@H](C(=O)N[C@@H](CCCNC(=N)N)C(=O)N[C@H](C(=O)O)C(C)C)[C@@H](C)O)[C@@H](C)O` [Neuroligin] (Biotin-TFAAGFNSTGLPHSTTRV-OH; C-terminus assumed), for which the Classification in test [1] (PDZ Mint 1, PDZ Domain 1, 2) is recorded as 1 (A450 nm 0-1); in test [2] it was 1 (A450 nm 0-1).
